Residue numbers refer to the chain shown, from its start. Names may count otherwise. One block for each binder: values may come before it.
What was measured:
[1] = target: T1, Human IL13Rα2 (human, UniProt Q14627 27-343, limits assumed); test: SPR Biacore 8K affinity ranking, antibody supernatant Fc-captured, 100 nM IL13Rα2 analyte
T1 construct: also called human recombinant IL13Rα2; Human IL13Ra2
T1 sequence (looked up): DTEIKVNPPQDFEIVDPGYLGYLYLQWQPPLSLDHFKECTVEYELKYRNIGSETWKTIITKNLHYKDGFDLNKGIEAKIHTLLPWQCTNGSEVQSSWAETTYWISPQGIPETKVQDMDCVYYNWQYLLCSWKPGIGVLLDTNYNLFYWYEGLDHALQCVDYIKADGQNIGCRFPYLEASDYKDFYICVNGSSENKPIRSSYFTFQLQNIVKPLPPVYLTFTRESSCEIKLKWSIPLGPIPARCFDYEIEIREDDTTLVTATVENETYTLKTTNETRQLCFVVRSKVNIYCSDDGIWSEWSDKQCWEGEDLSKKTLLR

[2] = target: T1, Human IL13Rα2; test: SPR Biacore T200, purified IgG Fc-captured, IL13Rα2 as analyte
[3] = target: T1, Human IL13Rα2; test: SPR Biacore T200, antibody Fc-captured, IL13Rα2 as analyte
[4] = target: T1, Human IL13Rα2; test: plate ELISA on human recombinant IL13Rα2, OD405, N=3
[5] = target: T2, human recombinant IL13Rα2hFc (cat #7147-IR-100, R&D Systems) (human, UniProt Q14627 27-343); test: plate ELISA on coated IL13Rα2hFc (1 µg/mL), detection with anti-6xHis-HRP, OD450 [continued) D]
T2 construct: Bought; also called recombinant human IL13Ra2; not shown: human Fc ('hFc') of the bought fusion protein
T2 sequence (looked up): T1 sequence (looked up)

[6] = target: T1, Human IL13Rα2; test: plate ELISA on human recombinant IL13Rα2, OD405, N=4
[7] = target: T1, Human IL13Rα2; test: plate ELISA on human IL13Rα2, OD405, N=4 [continued) B]
[8] = target: T1, Human IL13Rα2; test: SPR Biacore T200, antibody captured, IL13Rα2 analyte 0.9375-60 nM
[9] = target: T1, Human IL13Rα2; test: SPR Biacore T200, 25 C, antibody captured on Protein A chip, IL13Ra2 analyte 0.625-80 nM

- EC50 (read off the curve) [6]: ~0.01 µg/mL
B11: Humanized antibody VH1-VL1 Q94E (antibody, human IgG1, kappa, V domains shown)
VH: QVQLVQSGAEVKKPGSSVKVSCKASGYTFSNYLMNWVRQAPGQGLEWMGRIDPYDGDIDYNQNFKDRVTITADKSTSTAYMELSSLRSEDTAVYYCARGYGTAYGVDYWGQGTLVTVSS
VL: DIVMTQSPDSLAVSLGERATINCRASESVDNYGISFMNWYQQKPGQPPKLLIYAASRQGSGVPDRFSGSGSGTDFTLTISSLQAEDVAVYYCQESKEVPWTFGGGTKLEIKR

- Kd [1]: 900 pM
- koff [1]: 0.000463 s⁻¹
- kon [1]: 514000 M⁻¹ s⁻¹
B12: Humanized antibody VH1 + VL3 (antibody, human IgG1, kappa, V domains shown)
VH: B11 VH
VL: EIVLTQSPATLSLSPGERATLSCRASESVDNYGISFMNWYQQKPGQAPRLLIYAASRQGSGIPARFSGSGSGTDFTLTISSLEPEDFAVYYCQQSKEVPWTFGGGTKLEIKR

- EC50 (read off the curve) [6]: ~0.03 µg/mL
B13: Humanized antibody VH1 M34A-VL1 (antibody, human IgG1, kappa, V domains shown)
VH: B11 VH with M34A
VL: B11 VL with E94Q
notes: Antibody purified on protein A

- EC50 (read off the curve) [7]: ~0.03 µg/mL
- Kd [9]: 277 pM
- koff [9]: 0.000284 s⁻¹
- kon [9]: 1.02e+06 M⁻¹ s⁻¹
B15: Ab Vh1G56A-VL1W100F (antibody, human IgG1, kappa, V domains shown)
VH: B11 VH with G56A
VL: B11 VL with E94Q, W100F
notes: also called double mutant

- binding result [6]: binds
B16: Humanized antibody VH1-VL1 Q58E (antibody, human IgG1, kappa, V domains shown)
VH: B11 VH
VL: B11 VL with Q58E, E94Q

- Kd [1]: 698 pM
- koff [1]: 0.000595 s⁻¹
- kon [1]: 852000 M⁻¹ s⁻¹
B21: Humanized antibody VH3 + VL2 (antibody, human IgG1, kappa, V domains shown)
VH: B11 VH with S16A, I70M, A72R, K74T, A79V
VL: DIQMTQSPSSLSASVGDRVTITCRASESVDNYGISFMNWYQQKPGKAPKLLIYAASRQGSGVPSRFSGSGSGTDFTLTISSLQPEDFATYYCQQSKEVPWTFGGGTKLEIKR

- Kd [1]: 877 pM
- koff [1]: 0.000675 s⁻¹
- kon [1]: 769000 M⁻¹ s⁻¹
B25: Humanized antibody VH4 + VL3 (antibody, human IgG1, kappa, V domains shown)
VH: B11 VH with S16A, P41T, A72R, D73N, K74T, T76I
VL: B12 VL

- EC50 (read off the curve) [6]: ~0.04 µg/mL
B26: Humanized antibody VH1 D52E-VL1 (antibody, human IgG1, kappa, V domains shown)
VH: B11 VH with D52E
VL: B11 VL with E94Q
notes: also called VH1 MD52E-VL1

Continued, binder first:

B1: Chimeric antibody (VH and VL of murine Ab clone 47 in human constant regions) (antibody, V domains shown)
VH: QVQLQQPGAELVRPGASVKLSCKASGYTFSNYLMNWVKQRPEQDLDWIGRIDPYDGDIDYNQNFKDKAILTVDKSSSTAYMQLSSLTSEDSAVYYCARGYGTAYGVDYWGQGTSVTVSS
VL: not shown
notes: Full-length IgG, murine variable regions with human constant regions; also called chimeric IgG; Chimeric Ab
- Kd [1]: 1070 pM
- koff [1]: 0.000544 s⁻¹
- kon [1]: 511000 M⁻¹ s⁻¹
- Kd [2]: 1450 pM
- koff [2]: 0.000477 s⁻¹
- kon [2]: 330000 M⁻¹ s⁻¹
- Kd [3]: 1440 pM
- koff [3]: 0.000523 s⁻¹
- kon [3]: 363000 M⁻¹ s⁻¹
- EC50 (read off the curve) [4]: ~0.03 µg/mL

B2: Murine version of the BTE (scFv of anti-CD3 Okt3 and scFv of the murine anti-IL13Rα2 antibody) (bispecific antibody, V domains shown, not shown: small tags and cut ends)
VH: B1 VH
VL: not shown
notes: Control BTE; also called Okt3BTE; chimeric BTE using the mouse monoclonal Ab VH and VL domains
- EC50 (read off the curve) [5]: ~0.5 µg/mL

B3: Humanized antibody VH1 + VL1 (antibody, human IgG1, kappa, V domains shown)
VH: B11 VH
VL: B11 VL with E94Q
notes: also called Humanized VH1-VL1; U3621EI120 VH1+VL1
- Kd [1]: 768 pM
- koff [1]: 0.000329 s⁻¹
- kon [1]: 429000 M⁻¹ s⁻¹
- Kd [2]: 283 pM
- koff [2]: 0.000191 s⁻¹
- kon [2]: 676000 M⁻¹ s⁻¹
- EC50 (read off the curve) [6]: ~0.02 µg/mL
- EC50 (read off the curve) [4]: ~0.02 µg/mL
- EC50 (read off the curve) [7]: ~0.05 µg/mL
- Kd [8]: 257 pM
- koff [8]: 0.00019 s⁻¹
- kon [8]: 740000 M⁻¹ s⁻¹

B4: Humanized antibody VH2 + VL3 (antibody, human IgG1, kappa, V domains shown)
VH: B11 VH with S16A, G44R, A72R, K74T, T76A
VL: B12 VL
notes: also called U3621EI120 VH2+VL3
- Kd [1]: 1170 pM
- koff [1]: 0.000761 s⁻¹
- kon [1]: 649000 M⁻¹ s⁻¹
- Kd [2]: 513 pM
- koff [2]: 0.00042 s⁻¹
- kon [2]: 820000 M⁻¹ s⁻¹

B5: Humanized antibody VH2 + VL2 (antibody, human IgG1, kappa, V domains shown)
VH: B11 VH with S16A, G44R, A72R, K74T, T76A
VL: B21 VL
- Kd [1]: 857 pM
- koff [1]: 0.000555 s⁻¹
- kon [1]: 648000 M⁻¹ s⁻¹

B6: Humanized antibody VH4 + VL2 (antibody, human IgG1, kappa, V domains shown)
VH: B11 VH with S16A, P41T, A72R, D73N, K74T, T76I
VL: B21 VL
- Kd [1]: 597 pM
- koff [1]: 0.000445 s⁻¹
- kon [1]: 746000 M⁻¹ s⁻¹

B7: Humanized antibody VH1(G56A) + VL1 (antibody, human IgG1, kappa, V domains shown)
VH: B11 VH with G56A
VL: B11 VL with E94Q
notes: also called VHG56A-VL1; Humanized VHG56A-VL1
- EC50 (read off the curve) [4]: ~0.02 µg/mL
- Kd [8]: 215 pM
- koff [8]: 0.000156 s⁻¹
- kon [8]: 727000 M⁻¹ s⁻¹

B8: Humanized antibody VH2 + VL1 (antibody, human IgG1, kappa, V domains shown)
VH: B11 VH with S16A, G44R, A72R, K74T, T76A
VL: B11 VL with E94Q
- Kd [1]: 704 pM
- koff [1]: 0.000417 s⁻¹
- kon [1]: 593000 M⁻¹ s⁻¹

B9: Humanized antibody VH2 + VL4 (antibody, human IgG1, kappa, V domains shown)
VH: B11 VH with S16A, G44R, A72R, K74T, T76A
VL: B12 VL with L4M, L13V, D74E, E83Q, P84S
- Kd [1]: 1350 pM
- koff [1]: 0.000748 s⁻¹
- kon [1]: 555000 M⁻¹ s⁻¹

B10: Humanized antibody VH1 + VL2 (antibody, human IgG1, kappa, V domains shown)
VH: B11 VH
VL: B21 VL
- Kd [1]: 758 pM
- koff [1]: 0.000312 s⁻¹
- kon [1]: 412000 M⁻¹ s⁻¹

B14: Humanized antibody VH3 + VL4 (antibody, human IgG1, kappa, V domains shown)
VH: B11 VH with S16A, I70M, A72R, K74T, A79V
VL: B12 VL with L4M, L13V, D74E, E83Q, P84S
- Kd [1]: 984 pM
- koff [1]: 0.000615 s⁻¹
- kon [1]: 625000 M⁻¹ s⁻¹

B17: Humanized antibody VH1-VL1 M37A (antibody, human IgG1, kappa, V domains shown)
VH: B11 VH
VL: B11 VL with M37A, E94Q
- binding result [6]: binds

B18: Humanized antibody VH4 + VL1 (antibody, human IgG1, kappa, V domains shown)
VH: B11 VH with S16A, P41T, A72R, D73N, K74T, T76I
VL: B11 VL with E94Q
- Kd [1]: 727 pM
- koff [1]: 0.000424 s⁻¹
- kon [1]: 583000 M⁻¹ s⁻¹

B19: Humanized antibody VH3 + VL1 (antibody, human IgG1, kappa, V domains shown)
VH: B11 VH with S16A, I70M, A72R, K74T, A79V
VL: B11 VL with E94Q
- Kd [1]: 661 pM
- koff [1]: 0.000595 s⁻¹
- kon [1]: 901000 M⁻¹ s⁻¹

B20: Humanized antibody VH4 + VL4 (antibody, human IgG1, kappa, V domains shown)
VH: B11 VH with S16A, P41T, A72R, D73N, K74T, T76I
VL: B12 VL with L4M, L13V, D74E, E83Q, P84S
- Kd [1]: 594 pM
- koff [1]: 0.000501 s⁻¹
- kon [1]: 844000 M⁻¹ s⁻¹

B22: Humanized antibody VH1 + VL4 (antibody, human IgG1, kappa, V domains shown)
VH: B11 VH
VL: B12 VL with L4M, L13V, D74E, E83Q, P84S
notes: also called U3621EI120 VH1+VL4
- Kd [1]: 599 pM
- koff [1]: 0.000269 s⁻¹
- kon [1]: 449000 M⁻¹ s⁻¹
- Kd [2]: 297 pM
- koff [2]: 0.00022 s⁻¹
- kon [2]: 741000 M⁻¹ s⁻¹

B23: Humanized antibody VH3 + VL3 (antibody, human IgG1, kappa, V domains shown)
VH: B11 VH with S16A, I70M, A72R, K74T, A79V
VL: B12 VL
- Kd [1]: 1130 pM
- koff [1]: 0.000702 s⁻¹
- kon [1]: 620000 M⁻¹ s⁻¹

B24: Ab Vh1-VL1W100F (antibody, human IgG1, kappa, V domains shown)
VH: B11 VH
VL: B11 VL with E94Q, W100F
notes: also called single mutant W100F
- EC50 (read off the curve) [6]: ~0.03 µg/mL
- EC50 (read off the curve) [7]: ~0.03 µg/mL
- Kd [9]: 326 pM
- koff [9]: 0.000334 s⁻¹
- kon [9]: 1.03e+06 M⁻¹ s⁻¹

Source: US12703750 (NORTHWESTERN UNIVERSITY, dated 2026)
